Measured values as given in patent US20110256122A1 (published 2011).

Biological target: T1, recombinant human TNF R1/TNFRSF1A/Fc chimera (R+D Systems) (human, UniProt P19438 30-211)
T1 construct: Bought chimera; also called TNF-αR1; TNFR1 Fc; Fc part of the bought chimera not given
T1 sequence (looked up): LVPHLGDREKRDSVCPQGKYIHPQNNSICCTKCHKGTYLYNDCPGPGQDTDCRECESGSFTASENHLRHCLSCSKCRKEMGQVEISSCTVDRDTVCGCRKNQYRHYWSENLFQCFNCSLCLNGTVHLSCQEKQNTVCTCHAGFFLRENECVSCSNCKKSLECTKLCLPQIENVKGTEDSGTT
Assay: sandwich ELISA, TNF R1 Fc chimera coated on the plate, anti-human IgG F(ab)2 then anti-goat/sheep-HRP detection

B1: Dom 1h-131-206 (other)
chain: EVQLLESGGGLVQPGGSLRLSCAASGFTFAHETMVWVRQAPGKGLEWVSHIPPDGQDPFYADSVKGRFTISRDNSKNTLYLQMNSLRAEDTAVYHCALLPKRGPWFDYWGQGTLVTVSS
notes: Immunoglobulin single variable domain (dAb) with specificity for TNF-αR1; also called α-TNF-αR1 dAb; anti TNF alpha R1 dAb
Question: Does B1 bind?
Answer: Result: binds
